This passage reports tissue uptake, Kidneys uptake and Tumor uptake results from publication PMC11373624, “Development and preclinical characterization of a novel radiotheranostic EphA2-targeting bicyclic peptide” (Theranostics, 2024).

Structures are written as SMILES. Numbered stars: 1 amine (or outer) side, 2 acyl side, 3 side chain; on linkers, the order of the positions; unused ones are H or OH. Bridge positions count the residues as written; N and C are the ends. Square brackets hold non-standard residues; d marks the D form. Peptide text beside a SMILES is read from it. * marks the point of attachment. DOTA = O=C(O)CN1CCN(CC(=O)O)CCN(CC(=O)*)CCN(CC(=O)O)CC1; TATA = O=C(CC[*:1])N1CN(C(=O)CC[*:2])CN(C(=O)CC[*:3])C1; Hyp = O=C(O)[C@@H]1C[C@@H](O)CN1; hArg = N=C(N)NCCCC[C@H](N)C(=O)O; Cba = N[C@@H](CC1CCC1)C(=O)O; βAla = NCCC(=O)O; Sar = CNCC(=O)O

By tissue uptake is commonly meant the share of the injected amount in each gram of the tissue.

Series [1] in a line: in vivo. Conditions: male, athymic nude, mouse. As to the method:
(§1) SPECT/CT imaging was performed in three 5- to 8-week-old male athymic nude mice (Janvier Labs, UK) which were subcutaneously inoculated on the right upper flank with 5 x 10^6 PC-3 cells (1:1 in PBS:Matrigel). Tumor growth was monitored, and once size was approx. 200 - 500 mm^3, mice were injected intravenously via tail vein with 230 pmol of [^111In]In-BCY18469 (5.3 ± 0.2 MBq). Mice were imaged under isoflurane anesthesia using whole-body static SPECT followed by a CT at each timepoint (30 min SPECT scan time starting at 1h and 24h p.i.). Reconstructed images were generated in units of activity. Namely, the values assigned to the voxels (volume elements) comprising the 3D reconstructed SPECT images were in units of MBq or equivalent. Reconstructed images were processed with VivoQuant (Invicro). Whole body maximum intensity projection (MIP) images were generated using VivoQuant.

Series [2] deals with PC-3 tumor xenograft. As to the kind of experiment: in vivo. Particulars: male, athymic nude, mouse. As to the method:
as §1

The mark [3] stands for this setting: total radioactivity, Liver uptake.

Turning to `CC(C)C[C@@H]1NC(=O)[C@@H]2CSCCC(=O)N3CN(CN(C3)C(=O)CCSC[C@H](NC(=O)[C@H](CC(=O)O)NC(=O)[C@H](CCCCNC(=N)N)NC(=O)[C@H](C)NC(=O)CN(C)C(=O)CN(C)C(=O)CN(C)C(=O)CN(C)C(=O)CN(C)C(=O)CN(C)C(=O)CN(C)C(=O)CN(C)C(=O)CN(C)C(=O)CN(C)C(=O)CCNC(=O)CN3CCN(CC(=O)O)CCN(CC(=O)O)CCN(CC(=O)O)CC3)C(=O)N3C[C@H](O)C[C@H]3C(=O)N[C@@H](CC3CCC3)C(=O)N[C@@H](C(C)C)C(=O)N[C@@H](CC(N)=O)C(=O)N3CCC[C@H]3C(=O)N[C@@H](CC(C)C)C(=O)N2)C(=O)CCSC[C@@H](C(N)=O)NC(=O)[C@H](CCCCNC(=N)N)NC(=O)[C@H](Cc2c[nH]c3ccccc23)NC(=O)[C@@H](CC(=O)O)NC(=O)[C@@H]2CCCN2C(=O)[C@H](Cc2c[nH]cn2)NC1=O` [[111In]In-BCY18469, metal not drawn] ({DOTA-βAla}-[Sar][Sar][Sar][Sar][Sar][Sar][Sar][Sar][Sar][Sar]A[hArg]DC[Hyp][Cba]VNPLCLHP[dD]W[hArg]C-NH2; linker 14-21-28 via TATA), the tissue uptake at 1 h turned out to be 207 %ID/g in series [1] (Bladder uptake); 0.03 %ID/g in series [1] (Heart uptake); 32 %ID/g in series [1] (Kidneys uptake); 0.27 %ID/g in series [1] (Muscle uptake); 0.27 %ID/g in series [1] (Spleen uptake); 0.28 %ID/g in series [1] (Tail uptake). Besides, the tissue uptake at 1 h in series [1] (setting [3]) was found to be 0.13 %ID/g; in series [1] (total radioactivity, Lungs uptake), 0.12 %ID/g; in series [1] (total radioactivity, Tumor uptake), 5.7 ± 1.5 %ID/g. Besides, the tissue uptake at 24 h in series [1] (Bladder uptake) came out at 4.2 %ID/g; in series [1] (Heart uptake), 0.03 %ID/g; in series [1] (Kidneys uptake) it was 17 %ID/g; in series [1] (Lungs uptake), 0.01 %ID/g; in series [1] (Muscle uptake), 0.02 %ID/g; in series [1] (Spleen uptake), 0.4 %ID/g. Moreover, the tissue uptake at 24 h in series [1] (Tail uptake) was 0.07 %ID/g; in series [1] (Tumor uptake), 2.3 %ID/g; in series [1] (setting [3]), 0.05 %ID/g. The tissue uptake in series [1] (total radioactivity, Non-target organs uptake) is at most 1 %ID/g. This compound came in with a Kidneys uptake in series [2] (1 h) of 31.9 ± 3.4 %ID/g. For the same compound, the Tumor uptake is on record as 5.72 ± 1.47 %ID/g in series [2] (1 h) and 2.32 ± 0.50 %ID/g in series [2] (24 h).
